Experimental data published in publication PMC4333402 (Nucleic Acids Research, 2014).

Target: the molecule itself
Experiment: crystal structure

B1: Pyrococcus furiosus Cmr4 (natural protein, UniProt Q8U1S9 1-295, looked up)
chain: MKAYLVGLYTLTPTHPGSGTELGVVDQPIQRERHTGFPVIWGQSLKGVLRSYLKLVEKVDEEKINKIFGPPTEKAHEQAGLISVGDAKILFFPVRSLKGVYAYVTSPLVLNRFKRDLELAGVKNFQTEIPELTDTAIASEEITVDNKVILEEFAILIQKDDKGILESVVKAIEQAFGNEMAEKIKGRIAIIPDDVFRDLVELSTEIVARIRINAETGTVETGGLWYEEYIPSDTLFYSLILVTPRAKDNDMALIKEVLGKINGKYLQIGGNETVGKGFVKVTLKEVTNNGGTHAK
binding result: binds
